{"source": "paper PMC5651264", "target": "His-tagged FRUCTOKINASE6 (FRK6-His) (Arabidopsis thaliana)", "data": [{"substance": "GST-tagged TWIN SISTER OF FT (GST-TSF) (from UniProt Q9S7R5 1-175) (natural protein)", "values": [{"measurement": "formazan staining of a native PAGE gel (fructokinase enzyme activity staining), 1 μg FRK6-His with 1 μg His-TSF (the His-tagged TSF, not the GST fusion), against FRK6-His alone", "value": 2, "unit": "fold"}]}]}
